Bridge positions count the residues as written; N and C are the ends. Square brackets hold non-standard residues; d marks the D form. Ends that are not written are not given here. 2Nal = N[C@@H](Cc1ccc2ccccc2c1)C(=O)O; Bta = N[C@@H](Cc1csc2ccccc12)C(=O)O; Cha = N[C@@H](CC1CCCCC1)C(=O)O; Pen = CC(C)(S)[C@H](N)C(=O)O; Nle = CCCC[C@H](N)C(=O)O; Ahx = NCCCCCC(=O)O; Ava = NCCCCC(=O)O; GABA = NCCCC(=O)O
Assays:
[1] = molecular target: T1, hMC1-R (human, UniProt Q01726 1-317); assay: ratio Ki hMC1-R / Ki hMC4-R, same assay
T1 construct: whole, on cells; Assayed as membranes of CHO-K1 cells expressing the receptor; also called hMC-R receptor subtype 1; melanocyte-specific receptor (MC1-R)
Method: Cellular membranes used for the in vitro receptor binding assays were obtained from transgenic CHO-K1 cells stably expressing hMC-R receptor subtypes 1, 3, 4 or 5. […] The pellets were resuspended in the same buffer and centrifuged at 50,000 g for 10 minutes at approximately 4° C. The washed pellets containing the cellular membranes were stored at approximately −80° C.
Competitive inhibition of [¹²⁵I](Tyr²)-(Nle⁴-D-Phe⁷)α-MSH ([¹²⁵I]-NDP-α-MSH, Amersham Biosciences®) binding was carried out in polypropylene 96 well plates. Cell membranes (1-10 μg protein/well) prepared as described above were incubated in 50 mM Tris-HCl at pH 7.4 containing 0.2% bovine serum albumin (BSA), 5 mM MgCl₂, 1 mM CaCl₂ and 0.1 mg/mL bacitracin, with increasing concentrations of the test compound and 0.1-0.3 nM […] for approximately 90-120 minutes at approximately 37° C. Bound [¹²⁵I]-NDP-α-MSH ligand was separated from free [¹²⁵I]-NDP-α-MSH by filtration through GF/C glass fiber filter plates (Unifilter®; Packard) presoaked with 0.1% (w/v) polyethylenimine (PEI), using a Packard Filtermate® harvester. Filters were washed three times with 50 mM Tris-HCl at pH 7.4 at a temperature of approximately 0-4° C. and then assayed for radioactivity using a Packard Topcount® scintillation counter. Binding data were analyzed by computer-assisted non-linear regression analysis (XL fit; IDBS).

[2] = molecular target: T2, hMC5-R (human, UniProt P33032 1-325); assay: competition with [125I]-NDP-α-MSH, CHO-K1 membranes
T2 construct: whole, on cells; Assayed as membranes of CHO-K1 cells expressing the receptor; also called hMC-R receptor subtype 5; melanocortin-5 receptor (MC5-R)

[3] = molecular target: T1, hMC1-R; assay: as above
[4] = molecular target: T3, hMC3-R (human, UniProt P41968 1-323); assay: as above
T3 construct: whole, on cells; Assayed as membranes of CHO-K1 cells expressing the receptor; also called hMC-R receptor subtype 3; melacortin-3 (MC3-R)

[5] = molecular target: T4, hMC4-R (human, UniProt P32245 1-332); assay: as above
T4 construct: whole, on cells; Assayed as membranes of CHO-K1 cells expressing the receptor; also called hMC-R receptor subtype 4; melanocortin-4 (MC4-R)
T4 sequence (P32245 whole entry): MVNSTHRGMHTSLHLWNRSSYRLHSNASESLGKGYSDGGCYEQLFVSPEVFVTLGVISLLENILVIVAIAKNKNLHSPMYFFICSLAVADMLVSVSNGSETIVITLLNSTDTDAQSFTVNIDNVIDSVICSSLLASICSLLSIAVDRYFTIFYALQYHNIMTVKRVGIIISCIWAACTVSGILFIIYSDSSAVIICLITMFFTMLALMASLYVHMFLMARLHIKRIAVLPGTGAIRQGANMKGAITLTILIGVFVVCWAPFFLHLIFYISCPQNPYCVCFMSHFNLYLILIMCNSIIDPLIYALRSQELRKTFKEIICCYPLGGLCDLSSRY

T3 sequence (P41968 whole entry): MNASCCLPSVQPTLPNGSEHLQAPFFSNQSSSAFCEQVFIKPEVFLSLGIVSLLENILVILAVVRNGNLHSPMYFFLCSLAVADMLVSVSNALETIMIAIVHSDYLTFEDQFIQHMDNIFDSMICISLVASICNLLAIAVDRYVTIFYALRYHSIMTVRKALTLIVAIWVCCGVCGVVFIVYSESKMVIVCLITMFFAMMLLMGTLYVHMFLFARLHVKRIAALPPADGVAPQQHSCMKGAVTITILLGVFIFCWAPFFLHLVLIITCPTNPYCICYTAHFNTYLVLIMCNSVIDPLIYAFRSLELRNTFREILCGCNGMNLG
T2 sequence (P33032 whole entry): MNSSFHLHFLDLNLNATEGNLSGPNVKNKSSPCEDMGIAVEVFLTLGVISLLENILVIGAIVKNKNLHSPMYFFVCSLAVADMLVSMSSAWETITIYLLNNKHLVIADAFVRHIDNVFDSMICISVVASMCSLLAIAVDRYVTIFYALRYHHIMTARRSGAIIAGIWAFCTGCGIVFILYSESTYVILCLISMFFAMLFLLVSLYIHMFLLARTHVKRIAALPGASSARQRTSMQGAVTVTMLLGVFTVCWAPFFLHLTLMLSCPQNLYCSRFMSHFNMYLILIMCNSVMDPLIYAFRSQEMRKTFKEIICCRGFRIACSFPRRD
T1 sequence (Q01726 whole entry): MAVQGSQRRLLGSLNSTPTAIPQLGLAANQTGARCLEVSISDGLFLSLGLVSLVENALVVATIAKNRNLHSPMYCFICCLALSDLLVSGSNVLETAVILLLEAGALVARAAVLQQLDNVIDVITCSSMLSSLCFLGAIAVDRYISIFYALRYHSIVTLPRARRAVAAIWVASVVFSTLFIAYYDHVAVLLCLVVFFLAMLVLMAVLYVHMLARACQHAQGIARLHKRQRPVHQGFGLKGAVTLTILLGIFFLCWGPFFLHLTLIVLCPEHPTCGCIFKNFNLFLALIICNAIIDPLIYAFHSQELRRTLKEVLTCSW

Binder | Ki hMC1-R/MC4-R [1] | Ki [2] | Ki [3] | Ki [4] | Ki [5]
Ac-[Nle]D[dA]H[dF]RWK-NH2 (lactam 2-8; SMILES CCCC[C@H](NC(C)=O)C(=O)N[C@H]1CC(=O)NCCCC[C@@H](C(N)=O)NC(=O)[C@H](Cc2c[nH]c3ccccc23)NC(=O)[C@H](CCCNC(=N)N)NC(=O)[C@@H](Cc2ccccc2)NC(=O)[C@H](Cc2c[nH]cn2)NC(=O)[C@@H](C)NC1=O) [Ac-Nle-c(Asp-D-Ala-His-D-Phe-Arg-Trp-Lys)-NH2] | 0.26 | 4.19 nM | 0.659 nM | 98.9 nM | 2.55 nM
Ac-[2Nal]CH[dF]RW[GABA]C-NH2 (disulfide 2-8) [Ac-2-Nal-c(Cys-His-D-Phe-Arg-Trp-Gaba-Cys)-NH2] | 0.19 | 2.73 nM | 0.56 nM | 39.2 nM | 2.94 nM
Ac-[Cha]CH[dF]RW[GABA]C-NH2 (disulfide 2-8) [Ac-Cha-c(Cys-His-D-Phe-Arg-Trp-Gaba-Cys)-NH2] | 0.12 | 0.354 nM | 0.107 nM | 9.11 nM | 0.884 nM
Ac-[Nle]C[dL]H[dF]RWC-NH2 (disulfide 2-8; SMILES CCCC[C@H](NC(C)=O)C(=O)N[C@H]1CSSC[C@@H](C(N)=O)NC(=O)[C@H](Cc2c[nH]c3ccccc23)NC(=O)[C@H](CCCNC(=N)N)NC(=O)[C@@H](Cc2ccccc2)NC(=O)[C@H](Cc2c[nH]cn2)NC(=O)[C@@H](CC(C)C)NC1=O) [Ac-Nle-c(Cys-D-Leu-His-D-Phe-Arg-Trp-Cys)-NH2] | 0.39 | 5.57 nM | 1.6 nM | 6.82 nM | 4.13 nM
Ac-[Nle]CH[dF]RW[GABA][Pen]-NH2 (disulfide 2-8) [Ac-Nle-c(Cys-His-D-Phe-Arg-Trp-Gaba-Pen)-NH2] | 0.3 | 0.42 nM | 0.12 nM | 10 nM | 0.43 nM
[Nle]CH[dF]RW[GABA]C-NH2 (disulfide 2-8) [Nle-c(Cys-His-D-Phe-Arg-Trp-Gaba-Cys)-NH2] | 0.1 | 0.2 nM | 0.05 nM | 1.3 nM | 0.47 nM
Ac-ICH[dF]RW[GABA]C-NH2 (disulfide 2-8; SMILES CC[C@H](C)[C@H](NC(C)=O)C(=O)N[C@H]1CSSC[C@@H](C(N)=O)NC(=O)CCCNC(=O)[C@H](Cc2c[nH]c3ccccc23)NC(=O)[C@H](CCCNC(=N)N)NC(=O)[C@@H](Cc2ccccc2)NC(=O)[C@H](Cc2c[nH]cn2)NC1=O) [Ac-Ile-c(Cys-His-D-Phe-Arg-Trp-Gaba-Cys)-NH2] | 0.14 | 0.423 nM | 0.148 nM | 13.9 nM | 1.06 nM
Ac-VCH[dF]RW[GABA]C-NH2 (disulfide 2-8; SMILES CC(=O)N[C@H](C(=O)N[C@H]1CSSC[C@@H](C(N)=O)NC(=O)CCCNC(=O)[C@H](Cc2c[nH]c3ccccc23)NC(=O)[C@H](CCCNC(=N)N)NC(=O)[C@@H](Cc2ccccc2)NC(=O)[C@H](Cc2c[nH]cn2)NC1=O)C(C)C) [Ac-Val-c(Cys-His-D-Phe-Arg-Trp-Gaba-Cys)-NH2] | 0.13 | 0.864 nM | 0.256 nM | 29.9 nM | 1.98 nM
Ac-LCH[dF]RW[GABA]C-NH2 (disulfide 2-8) [Ac-Leu-c(Cys-His-D-Phe-Arg-Trp-Gaba-Cys)-NH2] | 0.22 | 0.486 nM | 0.216 nM | 17.4 nM | 0.995 nM
Ac-[Nle]CHFR[dW][GABA]C-NH2 (disulfide 2-8, Phe 4 is the L form here) [Ac-Nle-c(Cys-His-Phe-Arg-D-Trp-Gaba-Cys)-NH2] | 0.04 | 20.3 nM | 5.2 nM | 150 nM | 138 nM
[Nle]CH[dF]RW[Ava]C-NH2 (disulfide 2-8; N-terminus assumed; SMILES CCCC[C@H](N)C(=O)N[C@H]1CSSC[C@@H](C(N)=O)NC(=O)CCCCNC(=O)[C@H](Cc2c[nH]c3ccccc23)NC(=O)[C@H](CCCNC(=N)N)NC(=O)[C@@H](Cc2ccccc2)NC(=O)[C@H](Cc2c[nH]cn2)NC1=O) [Nle-c(Cys-His-D-Phe-Arg-Trp-Apn-Cys)-NH2] | 0.1 | 8.8 nM | 0.07 nM | 4.1 nM | 0.85 nM
Ac-CEH[dF]RWAC-NH2 (disulfide 1-8; SMILES CC(=O)N[C@H]1CSSC[C@@H](C(N)=O)NC(=O)[C@H](C)NC(=O)[C@H](Cc2c[nH]c3ccccc23)NC(=O)[C@H](CCCNC(=N)N)NC(=O)[C@@H](Cc2ccccc2)NC(=O)[C@H](Cc2c[nH]cn2)NC(=O)[C@H](CCC(=O)O)NC1=O) [Ac-c(Cys-Glu-His-D-Phe-Arg-Trp-Ala-Cys)-NH2] | 2.33 | 694 nM | 111 nM | 1710 nM | 47.7 nM
Ac-C[dA]H[dF]R[2Nal]AC-NH2 (disulfide 1-8; SMILES CC(=O)N[C@H]1CSSC[C@@H](C(N)=O)NC(=O)[C@H](C)NC(=O)[C@H](Cc2ccc3ccccc3c2)NC(=O)[C@H](CCCNC(=N)N)NC(=O)[C@@H](Cc2ccccc2)NC(=O)[C@H](Cc2c[nH]cn2)NC(=O)[C@@H](C)NC1=O) [Ac-c(Cys-D-Ala-His-D-Phe-Arg-2-Nal-Ala-Cys)-NH2] | 3.24 | 8810 nM | 132 nM | 4560 nM | 40.7 nM
Ac-[Nle][Pen]H[dF]RW[GABA][Pen]-NH2 (disulfide 2-8) [Ac-Nle-c(Pen-His-D-Phe-Arg-Trp-Gaba-Pen)-NH2] | 0.21 | 2.69 nM | 0.744 nM | 178 nM | 3.51 nM
Ac-RCH[dF]RW[GABA][Pen]-NH2 (disulfide 2-8; SMILES CC(=O)N[C@@H](CCCNC(=N)N)C(=O)N[C@H]1CSSC(C)(C)[C@@H](C(N)=O)NC(=O)CCCNC(=O)[C@H](Cc2c[nH]c3ccccc23)NC(=O)[C@H](CCCNC(=N)N)NC(=O)[C@@H](Cc2ccccc2)NC(=O)[C@H](Cc2c[nH]cn2)NC1=O) [Ac-Arg-c(Cys-His-D-Phe-Arg-Trp-Gaba-Pen)-NH2] | 0.4 | 502 nM | 1.81 nM | 20.5 nM | 4.57 nM
Ac-[Nle]D[dA]H[dF]R[Bta]K-NH2 (lactam 2-8; SMILES CCCC[C@H](NC(C)=O)C(=O)N[C@H]1CC(=O)NCCCC[C@@H](C(N)=O)NC(=O)[C@H](Cc2csc3ccccc23)NC(=O)[C@H](CCCNC(=N)N)NC(=O)[C@@H](Cc2ccccc2)NC(=O)[C@H](Cc2c[nH]cn2)NC(=O)[C@@H](C)NC1=O) [Ac-Nle-c(Asp-D-Ala-His-D-Phe-Arg-Bal-Lys)-NH2] | 0.08 | 4300 nM | 4.12 nM | 445 nM | 50.6 nM
Ac-[Nle]CH[dF]RW[Ahx]C-NH2 (disulfide 2-8) [Ac-Nle-c(Cys-His-D-Phe-Arg-Trp-Ahx-Cys)-NH2] | 0.11 | 0.359 nM | 0.0132 nM | 16.1 nM | 1.23 nM
